# Measured values published in EP4725969A1 (Latticon (Suzhou) Biopharmaceuticals Co., Ltd., dated 2024).
# Where a chain is given by its changes, count along the chain named.
# B1: Hu2117HK-Mu01 (Fc fusion)
# scFv: EVQLVESGGGLVQPGGSLRLSCAASGFTYSSYGMSWVRQAPGKGLEWVASISGGGSYTKYPDSVKGRFTISRDNSKNTLYLQMNSLRAEDTAVYYCARDYAGFFDVWGQGTLVTVSSGGGGSGGGGSGGGGSDIQMTQSPSSLSASVGDRVTITCRSSQSLVHSNGNTYLHWYQQKPGKSPKLLIYKVSNRFSGVPSRFSGSGSGTDFTLTISSLQPEDFATYFCSQSTHVPYTFGQGTKVEIK
# notes: scFv-hIgG1 Fc; not shown: human IgG1 Fc
# B2: Hu2117HK-Mu18 (Fc fusion, name in Kabat numbering)
# scFv: B1 scFv with N165L, S180A
# notes: as for B1
# B3: Hu2117HK-Mu06 (Fc fusion)
# scFv: B1 scFv with A49S, S180A
# notes: as for B1
# B4: Hu2117HK-Mu04 (Fc fusion)
# scFv: B1 scFv with M136L, S180A
# notes: as for B1
# B5: Hu2117HK-Mu09 (Fc fusion)
# scFv: B1 scFv with P61G, S180A
# notes: as for B1
# B6: Hu2117HK-Mu12 (Fc fusion)
# scFv: B1 scFv with S180A, F192P
# notes: as for B1
# B7: Hu2117HK-Mu08 (Fc fusion)
# scFv: B1 scFv with P61A, S180A
# notes: as for B1
# B8: Hu2117HK-Mu11 (Fc fusion)
# scFv: B1 scFv with S180A, F192D
# notes: as for B1
# B9: Hu2117HK-Mu03 (Fc fusion)
# scFv: B1 scFv with I134V, S180A
# notes: as for B1
# B10: Hu2117HK-Mu02 (Fc fusion)
# scFv: B1 scFv with S180A, T222V
# notes: as for B1
# B11: Hu2117HK-Mu19 (Fc fusion, name in Kabat numbering)
# scFv: B1 scFv with N165Q, S180A
# notes: as for B1
# B12: Hu2117HK-Mu13 (Fc fusion)
# scFv: B1 scFv with S180A, F224Y
# notes: scFv-hIgG1 Fc; also called Hu2117HK-Mul3; not shown: human IgG1 Fc
# B13: Hu2117HK-Mu10 (Fc fusion)
# scFv: B1 scFv with P61V, S180A
# notes: as for B1
# B14: Hu2117HK-Mu14 (Fc fusion)
# scFv: B1 scFv with D62G, S180A
# notes: as for B1
# B15: Hu2117HK-Mu16 (Fc fusion, name in Kabat numbering)
# scFv: B1 scFv with N165G, S180A
# notes: as for B1
# B16: Hu2117HK-Mu07 (Fc fusion, name in Kabat numbering)
# scFv: B1 scFv with K59Y, S180A
# notes: as for B1
# B17: Hu2117HK-Mu05 (Fc fusion)
# scFv: B1 scFv with Y29F, S180A
# notes: as for B1
# B18: Hu2117HK-Mu17 (Fc fusion, name in Kabat numbering)
# scFv: B1 scFv with N165I, S180A
# notes: as for B1
# B19: 2126-Hu-L09 (antibody, IgG1, V domains shown)
# VH: QVQLVQSGSELKKPGASVKVSCKASGYTFTDYSMHWVRQAPGQGLEWMGWINTETGEPTYADDFKGRFVFSLDTSVSTAYLQISSLKAEDTAVYFCVRVGRYDYAMDYWGQGTTVTVSS
# VL: DIQMTQSPSSLSASVGDRVTITCKASQDVYTAVAWYQQKPGKAPKLLINSASKRYTGVPSRFSGSGSGTDFTLTISSLQPEDFATYYCQQHYSTPPTFGGGTKVEIK
# notes: IgG1/Cκ
# B20: 2126-Hu-L11 (antibody, IgG1, V domains shown)
# VH: B19 VH
# VL: B19 VL with K53Q
# notes: IgG1/Cκ
# B21: 2126-Hu-L21 (antibody, IgG1, V domains shown)
# VH: B19 VH
# VL: B19 VL with K53Y, H91Y
# notes: IgG1/Cκ
# B22: 2126-Hu-L12 (antibody, IgG1, V domains shown)
# VH: B19 VH
# VL: B19 VL with K53S
# notes: IgG1/Cκ
# B23: 2126-Hu-L19 (antibody, IgG1, V domains shown)
# VH: B19 VH
# VL: B19 VL with K53Y, H91A
# notes: IgG1/Cκ
# B24: 2126-Hu-L17 (antibody, IgG1, V domains shown)
# VH: B19 VH
# VL: B19 VL with K53Y, Y55Q
# notes: IgG1/Cκ
# B25: 2126-Hu-L16 (antibody, IgG1, V domains shown)
# VH: B19 VH
# VL: B19 VL with K53Y, Y55P
# notes: IgG1/Cκ
# B26: 2126-Hu-L18 (antibody, IgG1, V domains shown)
# VH: B19 VH
# VL: B19 VL with K53Y, H91S
# notes: IgG1/Cκ
# B27: 2126-Hu-L15 (antibody, IgG1, V domains shown)
# VH: B19 VH
# VL: B19 VL with K53Y, Y55E
# notes: IgG1/Cκ
# B28: 2126-Hu-L14 (antibody, IgG1, V domains shown)
# VH: B19 VH
# VL: B19 VL with K53Y, Y55A
# notes: IgG1/Cκ
# B29: 2126-Hu-L13 (antibody, IgG1, V domains shown)
# VH: B19 VH
# VL: B19 VL with K53T
# notes: IgG1/Cκ
# B30: 2126-Hu-L10 (antibody, IgG1, V domains shown)
# VH: B19 VH
# VL: B19 VL with K53N
# notes: IgG1/Cκ
# Biological target: T1, recombinant human HER2 extracellular domain protein (human, UniProt P04626 23-652)
# T1 construct: range 23-652; Range is printed for the immunogen/panning protein; also called ErbB2; recombinant HER2 protein
# Experiment: BLI, Protein A capture
Kd,koff,kon,Binder
8.33 nM,0.000718 s⁻¹,86200 M⁻¹ s⁻¹,B1
11.4 nM,0.000483 s⁻¹,42600 M⁻¹ s⁻¹,B2
8.18 nM,–,82600 M⁻¹ s⁻¹,B3
9.88 nM,0.000895 s⁻¹,90600 M⁻¹ s⁻¹,B4
6.38 nM,0.000468 s⁻¹,73400 M⁻¹ s⁻¹,B5
6.4 nM,0.000453 s⁻¹,70800 M⁻¹ s⁻¹,B6
6.65 nM,0.000495 s⁻¹,74500 M⁻¹ s⁻¹,B7
9.41 nM,0.000803 s⁻¹,85400 M⁻¹ s⁻¹,B8
8.69 nM,0.00071 s⁻¹,81600 M⁻¹ s⁻¹,B9
8.32 nM,0.000737 s⁻¹,88600 M⁻¹ s⁻¹,B10
13.9 nM,0.000837 s⁻¹,60100 M⁻¹ s⁻¹,B11
6.05 nM,0.000484 s⁻¹,80100 M⁻¹ s⁻¹,B12
7.05 nM,0.000546 s⁻¹,77400 M⁻¹ s⁻¹,B13
7.16 nM,0.000624 s⁻¹,87200 M⁻¹ s⁻¹,B14
8.76 nM,0.00051 s⁻¹,58200 M⁻¹ s⁻¹,B15
11.7 nM,0.000465 s⁻¹,39800 M⁻¹ s⁻¹,B16
6.76 nM,0.000529 s⁻¹,78300 M⁻¹ s⁻¹,B17
14.9 nM,0.000738 s⁻¹,49500 M⁻¹ s⁻¹,B18

# Biological target: T1, recombinant human HER2 extracellular …
# Experiment: BLI, Protein A capture
# Remark: another data set of the same source
Kd,koff,kon,Binder
5.11 nM,0.00049 s⁻¹,95900 M⁻¹ s⁻¹,B19
6.25 nM,0.000651 s⁻¹,104000 M⁻¹ s⁻¹,B20
1.77 nM,0.000193 s⁻¹,109000 M⁻¹ s⁻¹,B21
6.13 nM,0.000619 s⁻¹,101000 M⁻¹ s⁻¹,B22
8.07 nM,0.00085 s⁻¹,105000 M⁻¹ s⁻¹,B23
7.91 nM,0.000786 s⁻¹,99300 M⁻¹ s⁻¹,B24
4.38 nM,0.000464 s⁻¹,106000 M⁻¹ s⁻¹,B25
8.83 nM,0.000912 s⁻¹,103000 M⁻¹ s⁻¹,B26
8.29 nM,0.000906 s⁻¹,109000 M⁻¹ s⁻¹,B27
6.48 nM,0.000666 s⁻¹,103000 M⁻¹ s⁻¹,B28
5.34 nM,0.000531 s⁻¹,99500 M⁻¹ s⁻¹,B29
5.38 nM,0.000558 s⁻¹,104000 M⁻¹ s⁻¹,B30
